The stoichiometry N is a count of units in the complex or per binding partner.

The chains are these.
B1: FANCB-FAAP100 heterodimer (complex, human)
chain 1: MTSKQAMSSNEQERLLCYNGEVLVFQLSKGNFADKEPTKTPILHVRRMVFDRGTKVFVQKSTGFFTIKEENSHLKIMCCNCVSDFRTGINLPYIVIEKNKKNNVFEYFLLILHSTNKFEMRLSFKLGYEMKDGLRVLNGPLILWRHVKAFFFISSQTGKVVSVSGNFSSIQWAGEIENLGMVLLGLKECCLSEEECTQEPSKSDYAIWNTKFCVYSLESQEVLSDIYIIPPAYSSVVTYVHICATEIIKNQLRISLIALTRKNQLISFQNGTPKNVCQLPFGDPCAVQLMDSGGGNLFFVVSFISNNACAVWKESFQVAAKWEKLSLVLIDDFIGSGTEQVLLLFKDSLNSDCLTSFKITDLGKINYSSEPSDCNEDDLFEDKQENRYLVVPPLETGLKVCFSSFRELRQHLLLKEKIISKSYKALINLVQGKDDNTSSAEEKECLVPLCGEEENSVHILDEKLSDNFQDSEQLVEKIWYRVIDDSLVVGVKTTSSLKLSLNDVTLSLLMDQAHDSRFRLLKCQNRVIKLSTNPFPAPYLMPCEIGLEAKRVTLTPDSKKEESFVCEHPSKKECVQIITAVTSLSPLLTFSKFCCTVLLQIMERESGNCPKDRYVVCGRVFLSLEDLSTGKYLLTFPKKKPIEHMEDLFALLAAFHKSCFQITSPGYALNSMKVWLLEHMKCEIIKEFPEVYFCERPGSFYGTLFTWKQRTPFEGILIIYSRNQTVMFQCLHNLIRILPINCFLKNLKSGSENFLIDNMAFTLEKELVTLSSLSSAIAKHESNFMQRCEVSKGKSSVVAAALSDRRENIHPYRKELQREKKKMLQTNLKVSGALYREITLKVAEVQLKSDFAAQKLSNL
chain 2: MAGAAPRVRYLAGFCCPLGGLAAGKPRVLCHEAEVFLSTGSELVYVYDQEGGLLTAAFRFPDQVWHLELLAPRRLLYALCARRGLYCLSLDHPGRSRSTSQDDRDSEDGDQPSPVIPVDPDACILPDAALCAFTLLDSVLVTLVQGPARWKMQLFEQPCPGEDPRPGGQIGEVELSSYTPPAGVPGKPAAPHFLPVLCSVSPSGSRVPHDLLGGSGGFTLEDALFGLLFGADATLLQSPVVLCGLPDGQLCCVILKALVTSRSAPGDPNALVKILHHLEEPVIFIGALKTEPQAAEAAENFLPDEDVHCDCLVAFGHHGRMLAIKASWDESGKLVPELREYCLPGPVLCAACGGGGRVYHSTPSDLCVVDLSRGSTPLGPEQPEEGPGGLPPMLCPASLNICSVVSLSASPRTHEGGTKLLALSAKGRLMTCSLDLDSEMPGPARMTTESAGQKIKELLSGIGNISERVSFLKKAVDQRNKALTSLNEAMNVSCALLSSGTGPRPISCTTSTTWSRLQTQDVLMATCVLENSSSFSLDQGWTLCIQVLTSSCALDLDSACSAITYTIPVDQLGPGARREVTLPLGPGENGGLDLPVTVSCTLFYSLREVVGGALAPSDSEDPFLDECPSDVLPEQEGVCLPLSRHTVDMLQCLRFPGLAPPHTRAPSPLGPTRDPVATFLETCREPGSQPAGPASLRAEYLPPSVASIKVSAELLRAALKDGHSGVPLCCATLQWLLAENAAVDVVRARALSSIQGVAPDGANVHLIVREVAMTDLCPAGPIQAVEIQVESSSLADICRAHHAVVGRMQTMVTEQATQGSSAPDLRVQYLRQIHANHETLLREVQTLRDRLCTEDEASSCATAQRLLQVYRQLRHPSLILL
B2: FANCL (enzyme, human, UniProt Q9NW38-1 1-375, looked up)
chain: MAVTEASLLRQCPLLLPQNRSKTVYEGFISAQGRDFHLRIVLPEDLQLKNARLLCSWQLRTILSGYHRIVQQRMQHSPDLMSFMMELKMLLEVALKNRQELYALPPPPQFYSSLIEEIGTLGWDKLVYADTCFSTIKLKAEDASGREHLITLKLKAKYPAESPDYFVDFPVPFCASWTPQSSLISIYSQFLAAIESLKAFWDVMDEIDEKTWVLEPEKPPRSATARRIALGNNVSINIEVDPRHPTMLPECFFLGADHVVKPLGIKLSRNIHLWDPENSVLQNLKDVLEIDFPARAILEKSDFTMDCGICYAYQLDGTIPDQVCDNSQCGQPFHQICLYEWLRGLLTSRQSFNIIFGECPYCSKPITLKMSGRKH
B3: FANCA (natural protein, human, UniProt O15360-1 1-1455, looked up)
chain: MSDSWVPNSASGQDPGGRRRAWAELLAGRVKREKYNPERAQKLKESAVRLLRSHQDLNALLLEVEGPLCKKLSLSKVIDCDSSEAYANHSSSFIGSALQDQASRLGVPVGILSAGMVASSVGQICTAPAETSHPVLLTVEQRKKLSSLLEFAQYLLAHSMFSRLSFCQELWKIQSSLLLEAVWHLHVQGIVSLQELLESHPDMHAVGSWLFRNLCCLCEQMEASCQHADVARAMLSDFVQMFVLRGFQKNSDLRRTVEPEKMPQVTVDVLQRMLIFALDALAAGVQEESSTHKIVRCWFGVFSGHTLGSVISTDPLKRFFSHTLTQILTHSPVLKASDAVQMQREWSFARTHPLLTSLYRRLFVMLSAEELVGHLQEVLETQEVHWQRVLSFVSALVVCFPEAQQLLEDWVARLMAQAFESCQLDSMVTAFLVVRQAALEGPSAFLSYADWFKASFGSTRGYHGCSKKALVFLFTFLSELVPFESPRYLQVHILHPPLVPGKYRSLLTDYISLAKTRLADLKVSIENMGLYEDLSSAGDITEPHSQALQDVEKAIMVFEHTGNIPVTVMEASIFRRPYYVSHFLPALLTPRVLPKVPDSRVAFIESLKRADKIPPSLYSTYCQACSAAEEKPEDAALGVRAEPNSAEEPLGQLTAALGELRASMTDPSQRDVISAQVAVISERLRAVLGHNEDDSSVEISKIQLSINTPRLEPREHMAVDLLLTSFCQNLMAASSVAPPERQGPWAALFVRTMCGRVLPAVLTRLCQLLRHQGPSLSAPHVLGLAALAVHLGESRSALPEVDVGPPAPGAGLPVPALFDSLLTCRTRDSLFFCLKFCTAAISYSLCKFSSQSRDTLCSCLSPGLIKKFQFLMFRLFSEARQPLSEEDVASLSWRPLHLPSADWQRAALSLWTHRTFREVLKEEDVHLTYQDWLHLELEIQPEADALSDTERQDFHQWAIHEHFLPESSASGGCDGDLQAACTILVNALMDFHQSSRSYDHSENSDLVFGGRTGNEDIISRLQEMVADLELQQDLIVPLGHTPSQEHFLFEIFRRRLQALTSGWSVAASLQRQRELLMYKRILLRLPSSVLCGSSFQAEQPITARCEQFFHLVNSEMRNFCSHGGALTQDITAHFFRGLLNACLRSRDPSLMVDFILAKCQTKCPLILTSALVWWPSLEPVLLCRWRRHCQSPLPRELQKLQEGRQFASDFLSPEAASPAPNPDWLSAAALHFAIQQVREENIRKQLKKLDCEREELLVFLFFFSLMGLLSSHLTSNSTTDLPKAFHVCAAILECLEKRKISWLALFQLTESDLRLGRLLLRVAPDQHTRLLPFAFYSLLSYFHEDAAIREEAFLHVAVDMYLKLVQLFVAGDTSTVSPPAGRSLELKGQGNPVELITKARLFLLQLIPRCPKKSFSHVAELLADRGDCDPEVSAALQSRQQAAPDADLSQEPHLF
B4: UBE2T (enzyme, human)
chain: MQRASRLKRELHMLATEPPPGITCWQDKDQMDDLRAQILGGANTPYEKGVFKLEVIIPERYPFEPPQIRFLTPIYHPNIDSAGRICLDVLKLPPKGAWRPSLNIATVLTSIQLLMSEPNPDDPLMADISSEFKYNKPAFLKNARQWTEKHARQKQKADEEEMLDNLPEAGDSRVHNSTQKRKASQLVGIEKKFHPDV

Assay in all cases: cryo-EM structure
Series [1] has as its target FA Core complex (human | human (endogenous in HEK-293F)) (UniProt O15360).
The series “cryo-EM structure” concerns the molecule itself.
The target of another series is T1, FANCI (human, UniProt Q9NVI1 1-1328).
T1 sequence: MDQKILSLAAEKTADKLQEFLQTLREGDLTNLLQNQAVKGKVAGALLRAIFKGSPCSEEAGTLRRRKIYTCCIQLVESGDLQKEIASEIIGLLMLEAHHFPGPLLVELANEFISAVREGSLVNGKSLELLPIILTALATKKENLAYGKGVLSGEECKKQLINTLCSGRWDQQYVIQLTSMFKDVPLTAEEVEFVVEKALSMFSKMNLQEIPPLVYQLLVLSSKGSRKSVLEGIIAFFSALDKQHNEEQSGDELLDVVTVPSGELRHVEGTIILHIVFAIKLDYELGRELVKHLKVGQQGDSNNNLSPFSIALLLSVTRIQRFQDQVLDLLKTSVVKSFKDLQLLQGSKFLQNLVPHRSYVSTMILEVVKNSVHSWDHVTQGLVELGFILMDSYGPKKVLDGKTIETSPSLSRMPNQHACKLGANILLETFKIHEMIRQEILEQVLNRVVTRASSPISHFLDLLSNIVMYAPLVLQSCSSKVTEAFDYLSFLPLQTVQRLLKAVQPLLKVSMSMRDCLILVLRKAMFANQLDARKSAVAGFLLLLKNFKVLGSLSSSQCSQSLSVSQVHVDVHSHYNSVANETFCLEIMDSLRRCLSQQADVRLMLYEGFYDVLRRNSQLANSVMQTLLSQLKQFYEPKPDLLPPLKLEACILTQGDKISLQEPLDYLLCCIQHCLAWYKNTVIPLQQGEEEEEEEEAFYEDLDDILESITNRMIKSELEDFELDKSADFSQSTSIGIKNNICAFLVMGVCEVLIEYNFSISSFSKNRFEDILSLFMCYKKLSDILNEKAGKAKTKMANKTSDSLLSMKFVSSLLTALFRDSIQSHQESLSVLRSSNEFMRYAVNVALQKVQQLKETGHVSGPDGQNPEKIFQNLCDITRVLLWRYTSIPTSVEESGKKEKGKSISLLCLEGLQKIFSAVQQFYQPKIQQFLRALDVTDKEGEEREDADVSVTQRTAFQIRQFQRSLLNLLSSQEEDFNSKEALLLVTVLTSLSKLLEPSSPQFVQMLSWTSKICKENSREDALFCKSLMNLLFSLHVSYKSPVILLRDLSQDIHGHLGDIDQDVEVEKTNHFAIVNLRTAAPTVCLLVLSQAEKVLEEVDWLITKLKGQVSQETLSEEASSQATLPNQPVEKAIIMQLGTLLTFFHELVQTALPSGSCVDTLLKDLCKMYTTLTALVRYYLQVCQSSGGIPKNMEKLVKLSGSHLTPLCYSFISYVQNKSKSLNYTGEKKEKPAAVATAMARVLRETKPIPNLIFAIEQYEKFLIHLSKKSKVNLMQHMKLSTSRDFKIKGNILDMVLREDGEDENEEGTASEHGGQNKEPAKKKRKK

In the series “FANCL” the target is B2.

In the case of “FANCI-FANCD2 (ID) complex (from UniProt Q9NVI1 1-1328; Q9BXW9 1-1451)”, the percent of Core particles with bound ID in series [1] is 63%.
As to B1, the “stoichiometry N” value in “cryo-EM structure” was 2.
For B2, the binding result in the series with FANCI is “binds”.
B3: in “cryo-EM structure”, the “stoichiometry N” value came to 2.
In the case of B4, the binding result in the series with FANCI and with FANCL was “binds” throughout.

For the origin of these results see paper PMC8378520 (Nature structural & molecular biology, 2021).
